Publication PMC8922439

Experiments:
[1] = molecular target: mRNA-expressed CH848 10.17DT DS SOSIP trimer (HIV-1 (CH848 10.17)); experiment: SEC
[2] = molecular target: mRNA-expressed CH848 10.17DT SOSIPv4.1 trimer (HIV-1 (CH848 10.17)); experiment: SEC

Substance	stoichiometry N [1]	stoichiometry N [2]
mRNA-expressed CH848 10.17DT DS SOSIP trimer (domain or fragment)	3	
mRNA-expressed CH848 10.17DT SOSIPv4.1 trimer (domain or fragment)		3
